No end group written: not given here.

For the test, the target named is GST-TβR-I (GST fused to the cytoplasmic part, residues 148-503, of constitutively active TβR-I T204D, FLAG-tagged at the C-terminus), P36897. In words: cell-based or functional assay.
GST-TβR-I (GST fused to the cytoplasmic part, residues 148-503, of constitutively active TβR-I T204D, FLAG-tagged at the C-terminus), P36897, sequence (P36897 148-503 T204D, form in doubt): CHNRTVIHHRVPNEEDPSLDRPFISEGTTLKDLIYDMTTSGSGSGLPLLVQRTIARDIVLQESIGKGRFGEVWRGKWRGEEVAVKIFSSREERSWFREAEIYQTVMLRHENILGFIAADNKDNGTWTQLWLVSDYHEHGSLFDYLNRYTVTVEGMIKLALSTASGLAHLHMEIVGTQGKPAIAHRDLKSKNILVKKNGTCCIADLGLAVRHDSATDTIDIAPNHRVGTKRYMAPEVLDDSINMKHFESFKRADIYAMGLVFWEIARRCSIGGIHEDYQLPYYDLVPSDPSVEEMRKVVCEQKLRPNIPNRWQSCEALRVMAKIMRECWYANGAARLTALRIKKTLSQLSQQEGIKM

The molecule RQIKIWFQNRRMKWKKTQMGSPSVRCSAMA-OH gave a peptide concentration at which the effect was observed, in vitro kinase assay of 10 µM and a peptide concentration of maximal inhibition, in vitro kinase assay of 200 µM.

As to RQIKIWFQNRRMKWKKTQMGSPSVRCSSMS-OH [antp-Sm2S peptide (penetratin fused to the C-terminus of wild-type Smad2)], the peptide concentration at which the effect was observed, in vitro kinase assay came out at 10 µM and the peptide concentration of maximal inhibition, in vitro kinase assay was 200 µM.
